Consider six molecules from paper PMC8624160.

As a reminder, the Kd is the concentration at which binding is half-saturated.

This data set concerns the target thrombin (UniProt P00734;P00734 328-363;364-622). Put plainly: fluorescence attenuation kinetics (kapp); Binding buffer, salt, pH and temperature not given in the material (PBS listed among reagents); ex/em 333/426 nm, constant SITS-aptamer, thrombin titrated, trip.

In the case of GTCCGTGGTAGGGCAGGTTGGGGTGAC (structured_DNA, 3' (CH2)6-NH2 linker coupled to SITS) [SITS-Thrombin27 3'], the Kd is 437 nM. In the case of AGTCCGTGGTAGGGCAGGTTGGGGTGACT (structured_DNA, 5' NH2-(CH2)6 linker coupled to SITS) [SITS-Thrombin29 5'], the Kd was found to be 851 nM. Next, GGTTGGTGTGGTTGG (structured_DNA, 5' NH2-(CH2)6 linker coupled to SITS) [SITS-Thrombin15 5']: 10800 nM. Under GTCCGTGGTAGGGCAGGTTGGGGTGAC (structured_DNA, 5' NH2-(CH2)6 linker coupled to SITS) [SITS-Thrombin27 5'] stands 1590 nM; under GGTTGGTGTGGTTGG (structured_DNA, 3' (CH2)6-NH2 linker coupled to SITS) [SITS-Thrombin15 3'], 4980 nM.

Consider AGTCCGTGGTAGGGCAGGTTGGGGTGACT (structured_DNA, 3' (CH2)6-NH2 linker coupled to SITS) [SITS-Thrombin29 3'], for which the Kd amounted to 180 nM.
